From doi:10.1101/2025.05.22.655678
Like-named read-outs stand apart in the source and are kept apart here.

How the values were obtained:
VchI [1] = biological target: T1, VchI (Vibrio cholerae); assay: EMSA
T1 chain: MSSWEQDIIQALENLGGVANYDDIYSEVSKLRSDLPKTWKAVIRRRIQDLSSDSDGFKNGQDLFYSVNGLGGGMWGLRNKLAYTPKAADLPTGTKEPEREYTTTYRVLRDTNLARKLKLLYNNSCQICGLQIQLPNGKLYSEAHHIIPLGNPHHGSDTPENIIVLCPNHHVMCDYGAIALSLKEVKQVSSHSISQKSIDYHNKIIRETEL

VchI [2] = biological target: T1, VchI; assay: EMSA

Row | Binder | binding result (VchI [1]) | binding result (VchI [2])
1 | 60bp-2-V (dsDNA, N6-methyladenine in any context (M.EcoGII)) DNA 1: GGGCTACGTCTTGCTGGCGTTCGCGACTTTTTGCTGGATGGCCTTCCCCATTATGATTCT DNA 2: AGAATCATAATGGGGAAGGCCATCCAGCAAAAAGTCGCGAACGCCAGCAAGACGTAGCCC | no binding | 
2 | GCCAG (dsDNA, N6-methyladenine in any context (M.EcoGII)) DNA 1: GGGCTACGTCTTGCTGGCGTTCGCGACGCCAGGCTGGATGGCCTTCCCCATTATGATTCT DNA 2: AGAATCATAATGGGGAAGGCCATCCAGCCTGGCGTCGCGAACGCCAGCAAGACGTAGCCC | no binding | 
3 | GTGAG (dsDNA, N6-methyladenine in any context (M.EcoGII)) DNA 1: GGGCTACGTCTTGCTGGCGTTCGCGACGTGAGGCTGGATGGCCTTCCCCATTATGATTCT DNA 2: AGAATCATAATGGGGAAGGCCATCCAGCCTCACGTCGCGAACGCCAGCAAGACGTAGCCC | binds | 
4 | CCGAG (dsDNA, N6-methyladenine in any context (M.EcoGII)) DNA 1: GGGCTACGTCTTGCTGGCGTTCGCGACCCGAGGCTGGATGGCCTTCCCCATTATGATTCT DNA 2: AGAATCATAATGGGGAAGGCCATCCAGCCTCGGGTCGCGAACGCCAGCAAGACGTAGCCC | binds | 
5 | GCGAA (dsDNA, N6-methyladenine in any context (M.EcoGII)) DNA 1: GGGCTACGTCTTGCTGGCGTTCGCGACGCGAAGCTGGATGGCCTTCCCCATTATGATTCT DNA 2: AGAATCATAATGGGGAAGGCCATCCAGCTTCGCGTCGCGAACGCCAGCAAGACGTAGCCC | no binding | 
6 | 60bp-2 (dsDNA, N6-methyladenine in any context (M.EcoGII)) DNA 1: GGGCTACGTCTTGCTGGCGTTCGCGACGCGAGGCTGGATGGCCTTCCCCATTATGATTCT DNA 2: AGAATCATAATGGGGAAGGCCATCCAGCCTCGCGTCGCGAACGCCAGCAAGACGTAGCCC |  | binds
7 | GCGAC (dsDNA, N6-methyladenine in any context (M.EcoGII)) DNA 1: GGGCTACGTCTTGCTGGCGTTCGCGACGCGACGCTGGATGGCCTTCCCCATTATGATTCT DNA 2: AGAATCATAATGGGGAAGGCCATCCAGCGTCGCGTCGCGAACGCCAGCAAGACGTAGCCC | no binding | 
8 | GGGAG (dsDNA, N6-methyladenine in any context (M.EcoGII)) DNA 1: GGGCTACGTCTTGCTGGCGTTCGCGACGGGAGGCTGGATGGCCTTCCCCATTATGATTCT DNA 2: AGAATCATAATGGGGAAGGCCATCCAGCCTCCCGTCGCGAACGCCAGCAAGACGTAGCCC | binds | 
9 | GCAAG (dsDNA, N6-methyladenine in any context (M.EcoGII)) DNA 1: GGGCTACGTCTTGCTGGCGTTCGCGACGCAAGGCTGGATGGCCTTCCCCATTATGATTCT DNA 2: AGAATCATAATGGGGAAGGCCATCCAGCCTTGCGTCGCGAACGCCAGCAAGACGTAGCCC | no binding | 
10 | TCGAG (dsDNA, N6-methyladenine in any context (M.EcoGII)) DNA 1: GGGCTACGTCTTGCTGGCGTTCGCGACTCGAGGCTGGATGGCCTTCCCCATTATGATTCT DNA 2: AGAATCATAATGGGGAAGGCCATCCAGCCTCGAGTCGCGAACGCCAGCAAGACGTAGCCC | binds | 
11 | GCGAT (dsDNA, N6-methyladenine in any context (M.EcoGII)) DNA 1: GGGCTACGTCTTGCTGGCGTTCGCGACGCGATGCTGGATGGCCTTCCCCATTATGATTCT DNA 2: AGAATCATAATGGGGAAGGCCATCCAGCATCGCGTCGCGAACGCCAGCAAGACGTAGCCC | no binding | 
12 | GAGAG (dsDNA, N6-methyladenine in any context (M.EcoGII)) DNA 1: GGGCTACGTCTTGCTGGCGTTCGCGACGAGAGGCTGGATGGCCTTCCCCATTATGATTCT DNA 2: AGAATCATAATGGGGAAGGCCATCCAGCCTCTCGTCGCGAACGCCAGCAAGACGTAGCCC | binds | 
13 | GCTAG (dsDNA, N6-methyladenine in any context (M.EcoGII)) DNA 1: GGGCTACGTCTTGCTGGCGTTCGCGACGCTAGGCTGGATGGCCTTCCCCATTATGATTCT DNA 2: AGAATCATAATGGGGAAGGCCATCCAGCCTAGCGTCGCGAACGCCAGCAAGACGTAGCCC | no binding | 
14 | 60bp-5 (dsDNA, N6-methyladenine in any context (M.EcoGII)) DNA 1: TGACGACCATCAGGGACAGCTTCAAGGATCGCTCGCGGCTCTTACCAGCCTAACTTCGAT DNA 2: ATCGAAGTTAGGCTGGTAAGAGCCGCGAGCGATCCTTGAAGCTGTCCCTGATGGTCGTCA |  | binds
15 | 60bp-7 (dsDNA, N6-methyladenine in any context (M.EcoGII)) DNA 1: CGGCGATTTATGCCGCCTCGGCGAGCACATGGAACGGGTTGGCATGGATTGTAGGCGCCG DNA 2: CGGCGCCTACAATCCATGCCAACCCGTTCCATGTGCTCGCCGAGGCGGCATAAATCGCCG |  | binds
16 | 60bp-7-V (dsDNA, N6-methyladenine in any context (M.EcoGII)) DNA 1: CGGCGATTTATGCCGCCTCGTTTTTCACATGGAACGGGTTGGCATGGATTGTAGGCGCCG DNA 2: CGGCGCCTACAATCCATGCCAACCCGTTCCATGTGAAAAACGAGGCGGCATAAATCGCCG | binds | 
17 | 59bp-GAG (dsDNA, N6-methyladenine at A of GAG (position 30, printed M6A); legend says M.EcoGII-methylated) DNA 1: TTTTTTTTTTTTTTTTTTTTTTTTTTTTGAGTTTTTTTTTTTTTTTTTTTTTTTTTTTT DNA 2: AAAAAAAAAAAAAAAAAAAAAAAAAAAACTCAAAAAAAAAAAAAAAAAAAAAAAAAAAA | binds | 
18 | ss-59nt-GAG (ssDNA, N6-methyladenine at A of GAG (position 30)) DNA: TTTTTTTTTTTTTTTTTTTTTTTTTTTTGAGTTTTTTTTTTTTTTTTTTTTTTTTTTTT | no binding | 
19 | 60bp-3 (dsDNA, N6-methyladenine in any context (M.EcoGII)) DNA 1: GCCTTCCCCATTATGATTCTTCTCGCTTCCGGCGGCATCGGGATGCCCGCGTTGCAGGCC DNA 2: GGCCTGCAACGCGGGCATCCCGATGCCGCCGGAAGCGAGAAGAATCATAATGGGGAAGGC |  | binds
20 | 60bp-1 (dsDNA, N6-methyladenine in any context (M.EcoGII)) DNA 1: AGAAGCAGGCCATTATCGCCGGCATGGCGGCCGACGCGCTGGGCTACGTCTTGCTGGCGT DNA 2: ACGCCAGCAAGACGTAGCCCAGCGCGTCGGCCGCCATGCCGGCGATAATGGCCTGCTTCT |  | no binding
21 | 60bp-4 (dsDNA, N6-methyladenine in any context (M.EcoGII)) DNA 1: GGATGCCCGCGTTGCAGGCCATGCTGTCCAGGCAGGTAGATGACGACCATCAGGGACAGC DNA 2: GCTGTCCCTGATGGTCGTCATCTACCTGCCTGGACAGCATGGCCTGCAACGCGGGCATCC |  | no binding
